{"source": "patent US20020082409A1", "assay_in_all_cases": "cell-based or functional assay", "key": {"[1]": {"target": "recombinant CRH R2 beta expressed in 293T cells (UniProt Q13324)"}, "[2]": {"target": "recombinant CRH R2-alpha expressed in 293T cells (UniProt Q13324)"}, "[3]": {"target": "recombinant CRH R2 expressed in 293T cells (isoform not stated, Fig. 3f), Q13324", "sequence (Q13324 20-411)": "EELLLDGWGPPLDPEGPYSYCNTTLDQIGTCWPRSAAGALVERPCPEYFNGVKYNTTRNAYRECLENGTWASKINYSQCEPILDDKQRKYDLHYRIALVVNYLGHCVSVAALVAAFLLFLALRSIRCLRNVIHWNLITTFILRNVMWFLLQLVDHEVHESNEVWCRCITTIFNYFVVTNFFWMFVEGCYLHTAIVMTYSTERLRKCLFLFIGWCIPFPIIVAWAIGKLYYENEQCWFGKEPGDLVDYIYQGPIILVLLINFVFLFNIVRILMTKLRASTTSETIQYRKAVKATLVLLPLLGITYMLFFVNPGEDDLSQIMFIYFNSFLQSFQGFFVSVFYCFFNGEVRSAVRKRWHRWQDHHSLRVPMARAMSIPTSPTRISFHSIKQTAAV"}}, "note": "Ends that are not written are not given here.", "data": [{"molecule": "stresscopin 1 (full-length 43-amino-acid mature peptide, synthetic, amidated)", "values": [{"measurement": "potency in cAMP production, compared to stresscopin 2 and the pufferfish peptide", "setting": "[1]", "value": "> 10", "unit": "fold"}, {"measurement": "potency in cAMP production, compared to stresscopin 2 and the pufferfish peptide", "setting": "[2]", "value": "> 10", "unit": "fold"}]}, {"molecule": "HPGSRIVLSLDVILGLLQILLEQARARAAREQATTNARILARV-OH", "note": "[SCP1-NA, full-length stresscopin 1 devoid of amidation at the C-terminus]", "values": [{"measurement": "reduction in ability to stimulate cAMP production, against amidated stresscopin 1", "setting": "[3]", "value": "> 50", "unit": "fold"}]}]}
